Assay [1] addresses T1, murine Fibroblast Activation Protein (FAP), expressed in HEK293 cells (mouse, UniProt P97321 1-761).
T1 construct: whole, on cells; Used on transfected HEK293 cells (flow cytometry) and as lysate of those cells coated on plates (ELISA); also called mouse FAP; muFAP
T1 sequence (looked up): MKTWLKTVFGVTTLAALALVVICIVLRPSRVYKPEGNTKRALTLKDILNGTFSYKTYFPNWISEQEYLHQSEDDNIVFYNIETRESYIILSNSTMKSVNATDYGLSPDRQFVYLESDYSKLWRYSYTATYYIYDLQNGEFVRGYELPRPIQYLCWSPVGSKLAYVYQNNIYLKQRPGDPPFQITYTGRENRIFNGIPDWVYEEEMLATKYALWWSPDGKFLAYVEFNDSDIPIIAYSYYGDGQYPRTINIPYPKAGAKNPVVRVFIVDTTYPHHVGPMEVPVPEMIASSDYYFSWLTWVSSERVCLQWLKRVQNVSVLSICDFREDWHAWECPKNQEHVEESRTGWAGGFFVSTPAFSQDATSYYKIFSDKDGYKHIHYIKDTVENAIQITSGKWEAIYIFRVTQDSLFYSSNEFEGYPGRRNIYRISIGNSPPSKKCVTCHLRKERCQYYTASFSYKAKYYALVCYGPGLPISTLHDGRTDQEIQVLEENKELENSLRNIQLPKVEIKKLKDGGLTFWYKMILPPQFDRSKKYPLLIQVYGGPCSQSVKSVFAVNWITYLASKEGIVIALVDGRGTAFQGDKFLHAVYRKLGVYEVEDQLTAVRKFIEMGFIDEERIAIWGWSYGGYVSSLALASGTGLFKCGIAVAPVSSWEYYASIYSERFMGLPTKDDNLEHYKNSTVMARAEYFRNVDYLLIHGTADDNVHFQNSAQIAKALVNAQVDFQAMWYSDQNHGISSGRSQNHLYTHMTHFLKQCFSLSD
Nature of the assay: serial dilutions of Fab on 293 muFAP+ cells.

For assay [2], the target named is T2, huFAP coated on a surface plasmon resonance chip (human, UniProt Q12884 26-760, limits assumed).
T2 construct: also called human FAP
T2 sequence (looked up): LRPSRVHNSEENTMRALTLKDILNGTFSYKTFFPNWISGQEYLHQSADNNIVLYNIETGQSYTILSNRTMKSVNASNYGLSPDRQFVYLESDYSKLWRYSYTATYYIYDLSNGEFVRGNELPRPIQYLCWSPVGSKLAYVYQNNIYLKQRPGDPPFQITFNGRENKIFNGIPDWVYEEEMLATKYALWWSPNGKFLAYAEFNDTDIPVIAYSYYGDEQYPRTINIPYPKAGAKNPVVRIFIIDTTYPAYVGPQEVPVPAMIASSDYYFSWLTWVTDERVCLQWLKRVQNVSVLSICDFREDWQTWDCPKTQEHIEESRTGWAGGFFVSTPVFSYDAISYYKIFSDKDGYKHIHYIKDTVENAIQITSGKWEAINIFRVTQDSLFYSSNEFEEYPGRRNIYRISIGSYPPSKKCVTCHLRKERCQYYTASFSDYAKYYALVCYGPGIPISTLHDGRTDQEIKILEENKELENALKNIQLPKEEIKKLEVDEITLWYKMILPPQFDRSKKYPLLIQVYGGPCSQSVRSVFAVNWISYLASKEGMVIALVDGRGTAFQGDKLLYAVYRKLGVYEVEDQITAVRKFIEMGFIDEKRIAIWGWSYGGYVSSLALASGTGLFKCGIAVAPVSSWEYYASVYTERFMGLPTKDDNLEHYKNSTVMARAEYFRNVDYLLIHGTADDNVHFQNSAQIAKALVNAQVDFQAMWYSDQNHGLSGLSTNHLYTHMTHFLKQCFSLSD
Description: surface plasmon resonance, low-density huFAP coated chip. A general note: Surface plasmon resonance follows binding to a sensor surface in real time, without labels.

The target of assay [3] is T3, human dipeptidyl peptidase IV (DPPIV, CD26), expressed in HEK293 cells (human, UniProt P27487 1-766).
T3 construct: whole, on cells; Used as lysate of transfected HEK293 cells coated on plates (ELISA), on the cells (flow cytometry screening) and as immunoprecipitate; also called huCD26; HEK293 huCD26+
Nature of the assay: ELISA on cell-lysate-coated plates (HEK293 huCD26+), Fig. 3.

Assay [4] deals with T4, human Fibroblast Activation Protein (FAP), expressed in transfected cells (human, UniProt Q12884 1-760).
T4 construct: whole, on cells; Used on transfected HT1080 / HEK293 cells (flow cytometry), as lysates of those cells coated on plates (ELISA) and as immunoprecipitate from their extracts; also called human FAP; huFAP
T4 sequence (looked up): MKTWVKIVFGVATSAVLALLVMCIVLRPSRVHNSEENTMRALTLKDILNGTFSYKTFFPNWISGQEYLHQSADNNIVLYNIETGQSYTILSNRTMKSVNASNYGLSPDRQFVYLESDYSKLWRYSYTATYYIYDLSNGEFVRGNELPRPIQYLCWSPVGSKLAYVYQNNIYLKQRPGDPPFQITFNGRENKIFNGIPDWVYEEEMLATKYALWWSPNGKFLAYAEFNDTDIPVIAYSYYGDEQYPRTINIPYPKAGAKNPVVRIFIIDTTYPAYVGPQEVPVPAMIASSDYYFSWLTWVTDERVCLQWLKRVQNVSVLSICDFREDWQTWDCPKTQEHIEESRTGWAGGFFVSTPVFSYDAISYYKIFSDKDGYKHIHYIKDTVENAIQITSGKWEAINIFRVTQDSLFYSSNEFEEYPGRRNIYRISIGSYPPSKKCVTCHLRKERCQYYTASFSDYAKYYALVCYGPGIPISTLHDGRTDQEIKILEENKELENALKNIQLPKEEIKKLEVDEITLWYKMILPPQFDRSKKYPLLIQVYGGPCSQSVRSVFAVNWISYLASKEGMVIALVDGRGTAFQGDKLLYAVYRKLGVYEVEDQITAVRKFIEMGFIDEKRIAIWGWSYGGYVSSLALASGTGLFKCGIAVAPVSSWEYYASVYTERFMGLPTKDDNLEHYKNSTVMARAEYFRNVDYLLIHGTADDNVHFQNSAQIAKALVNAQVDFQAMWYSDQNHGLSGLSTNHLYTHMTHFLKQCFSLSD
Description: binding to antigen expressing cell lines, apparent KD of bivalent IgG.

T3 sequence (P27487 whole entry): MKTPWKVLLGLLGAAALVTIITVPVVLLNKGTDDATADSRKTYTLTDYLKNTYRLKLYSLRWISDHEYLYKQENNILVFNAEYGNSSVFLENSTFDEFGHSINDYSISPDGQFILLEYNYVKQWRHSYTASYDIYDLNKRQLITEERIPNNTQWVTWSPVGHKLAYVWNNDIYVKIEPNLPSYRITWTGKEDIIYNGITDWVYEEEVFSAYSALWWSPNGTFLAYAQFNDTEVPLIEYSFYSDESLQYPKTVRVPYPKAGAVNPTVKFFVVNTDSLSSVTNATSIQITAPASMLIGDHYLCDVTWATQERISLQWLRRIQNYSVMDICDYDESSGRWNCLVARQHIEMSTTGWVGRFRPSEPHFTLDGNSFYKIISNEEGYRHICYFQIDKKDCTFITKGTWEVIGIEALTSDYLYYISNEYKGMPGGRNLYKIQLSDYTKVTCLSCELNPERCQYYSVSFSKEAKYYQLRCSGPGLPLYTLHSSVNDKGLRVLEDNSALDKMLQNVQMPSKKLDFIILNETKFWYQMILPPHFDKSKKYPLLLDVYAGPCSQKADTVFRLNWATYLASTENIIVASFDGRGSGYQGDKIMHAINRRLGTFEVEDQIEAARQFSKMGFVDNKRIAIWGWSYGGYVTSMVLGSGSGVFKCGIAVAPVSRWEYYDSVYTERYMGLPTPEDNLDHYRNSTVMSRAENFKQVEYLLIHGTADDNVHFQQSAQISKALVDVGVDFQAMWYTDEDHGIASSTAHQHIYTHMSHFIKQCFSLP

B1: Fab ESC14 (Fab, V domains shown)
VH: EVQLVQSGAEVKKPGASVKVSCKASGYTFTSYGISWVRQAPGQGLEWMGWISAYNGNTNYAQKLQGRVTMTTDTSTSTAYMELRSLRSDDTAVYYCARDWSRSGYYLPDYWGQGTLVTVSS
VL: DVVMTQSPLSLPVTLGQPASISCRSSQSLLHSNGYNYLDWYLQRPGQSPHLLIFLGSNRASGVPDRFSGSGSGTDFTLKISRVEAEDVGIYYCMQALQTPPTFGQGTKVEIK
notes: Fully human Fab from a non-immunized phage library, made in E. coli TG-1, with myc tag and His tag
For B1, the Kd came out at 251 nM in assay [1] and 210 nM in assay [2]. The binding result in assay [3] was “no binding (tested: 100 nM)”.

B2: ESC14 IgG1 (antibody, V domains shown)
VH: EVQLVQSGAEVKKPGASVKVSCKASGYTFTSYGISWVRQAPGQGLEWMGWISAYNGNTNYAQKLQGRVTMTTDTSTSTAYMELRSLRSDDTAVYYCARDWSRSGYYLPDYWGQGTLVTVSS
VL: DVVMTQSPLSLPVTLGQPASISCRSSQSLLHSNGYNYLDWYLQRPGQSPHLLIFLGSNRASGVPDRFSGSGSGTDFTLKISRVEAEDVGIYYCMQALQTPPTFGQGTKVEIK
notes: Variable domains cloned into a full human IgG1 format, made in NS0 cells; also called IgG1 antibody ESC14; ESC14 antibody
Take B2: the Kd in assay [4] is approximately 1 nM.

B3: Fab ESC11 (Fab, V domains shown)
VH: HVQLQESGPGLVKPSETLSLTCTVSGGSISSNNYYWGWIRQTPGKGLEWIGSIYYSGSTNYNPSLKSRVTISVDTSKNQFSLKLSSVTAADTAVYYCARGARWQARPATRIDGVAFDIWGQGTMVTVSS
VL: ETTLTQSPGTLSLSPGERATLSCRASQTVTRNYLAWYQQKPGQAPRLLMYGASNRAAGVPDRFSGSGSGTDFTLTISRLEPEDFAVYYCQQFGSPYTFGQGTKVEIK
notes: as for B1
With B3, the Kd in assay [1] is 51 nM; in assay [2] it was 10 nM. For the same molecule, the binding result in assay [3] is given as “no binding (tested: 100 nM)”.

B4: ESC11 IgG1 (antibody, V domains shown)
VH: QVQLQESGPGLVKPSETLSLTCTVSGGSISSNNYYWGWIRQTPGKGLEWIGSIYYSGSTNYNPSLKSRVTISVDTSKNQFSLKLSSVTAADTAVYYCARGARWQARPATRIDGVAFDIWGQGTMVTVSS
VL: ETTLTQSPGTLSLSPGERATLSCRASQTVTRNYLAWYQQKPGQAPRLLMYGASNRAAGVPDRFSGSGSGTDFTLTISRLEPEDFAVYYCQQFGSPYTFGQGTKVEIK
notes: Variable domains cloned into a full human IgG1 format, made in NS0 cells; also called IgG1 antibody ESC11; ESC11 antibody
With B4, the Kd in assay [4] was approximately 1 nM.

(Values after patent WO2011040973A2 (dated 2011).)
